In paper PMC10786891, “Massively parallel profiling of RNA-targeting CRISPR-Cas13d”:
Changes are numbered by the printed parent chain. Names may count otherwise.

T1: EsCas13d, nuclease-dead (Eubacterium siraeum, UniProt B0MS50, R295A;H300A;R849A;H854A)
T1 sequence: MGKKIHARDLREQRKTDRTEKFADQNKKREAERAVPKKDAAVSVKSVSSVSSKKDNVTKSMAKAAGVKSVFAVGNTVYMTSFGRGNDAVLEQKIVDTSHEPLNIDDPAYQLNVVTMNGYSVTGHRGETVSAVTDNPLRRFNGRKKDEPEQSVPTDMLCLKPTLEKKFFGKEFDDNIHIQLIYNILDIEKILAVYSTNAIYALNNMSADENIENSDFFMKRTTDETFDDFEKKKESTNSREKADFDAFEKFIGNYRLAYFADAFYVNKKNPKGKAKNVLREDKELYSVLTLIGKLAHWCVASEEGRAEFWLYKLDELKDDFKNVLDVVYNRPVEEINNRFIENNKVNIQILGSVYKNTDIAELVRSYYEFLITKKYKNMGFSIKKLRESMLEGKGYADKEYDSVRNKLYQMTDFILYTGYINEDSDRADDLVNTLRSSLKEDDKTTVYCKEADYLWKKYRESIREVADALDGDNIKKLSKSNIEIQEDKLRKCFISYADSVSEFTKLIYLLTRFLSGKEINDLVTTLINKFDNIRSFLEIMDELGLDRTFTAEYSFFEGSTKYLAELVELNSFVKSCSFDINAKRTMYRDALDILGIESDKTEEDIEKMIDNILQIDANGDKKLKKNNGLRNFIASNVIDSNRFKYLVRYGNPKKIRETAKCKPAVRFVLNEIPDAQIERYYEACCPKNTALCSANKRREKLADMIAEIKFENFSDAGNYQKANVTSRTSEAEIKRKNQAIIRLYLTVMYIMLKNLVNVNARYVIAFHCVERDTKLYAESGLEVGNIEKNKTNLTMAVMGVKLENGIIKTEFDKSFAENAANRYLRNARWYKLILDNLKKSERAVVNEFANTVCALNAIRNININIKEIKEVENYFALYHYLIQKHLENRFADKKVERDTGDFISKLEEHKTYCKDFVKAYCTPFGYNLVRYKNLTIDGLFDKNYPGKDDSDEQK

B1: target 1 insA 3' of 12,insC 3' of 9 (mixed)
RNA 1: CACCCGUGCAAAAAUGCAGGGGUCUAAAACUGAGCGGAUAACCUCUCUAUGG
RNA 2: GGGAAUGGAUCCACAUCUACGAAUUCGUACCAUAGAGAGGAUUACUCCGCUCACCGAGAUCGGAAGAGCACACGU
B2: target 1 G12A,G15C (mixed)
RNA 1: B1 RNA 1
RNA 2: GGGAAUGGAUCCACAUCUACGAAUUCGUACCAUAGACAGAUUAUCCGCUCACCGAGAUCGGAAGAGCACACGU
B3: target 1 G12A,C22U (mixed)
RNA 1: B1 RNA 1
RNA 2: B2 RNA 2 with C30U, C37G
B4: target 1 insC 3' of 15,insA 3' of 4 (mixed)
RNA 1: B1 RNA 1
RNA 2: B1 RNA 2 with A38C, G39A, A41G, C45U, U46C, C48G, G49C, C50A
B5: target 1 insA 3' of 21,insA 3' of 15 (mixed)
RNA 1: B1 RNA 1
RNA 2: GGGAAUGGAUCCACAUCUACGAAUUCGUACCAAUAGAGAAGGUUAUCCGCUCACCGAGAUCGGAAGAGCACACGU
B6: target 1 complement block 2-9 (mixed)
RNA 1: B1 RNA 1
RNA 2: GGGAAUGGAUCCACAUCUACGAAUUCGUACCAUAGAGAGGUUUAGGCGAGACCGAGAUCGGAAGAGCACACGU
B7: target 1 insU 3' of 12,insG 3' of 8 (mixed)
RNA 1: B1 RNA 1
RNA 2: B1 RNA 2 with A41U, C45U, U46G
B8: target 1 insG 3' of 16 (mixed)
RNA 1: B1 RNA 1
RNA 2: GGGAAUGGAUCCACAUCUACGAAUUCGUACCAUAGAGGAGGUUAUCCGCUCACCGAGAUCGGAAGAGCACACGU
B9: target 1 insA 3' of 15,insG 3' of 9 (mixed)
RNA 1: B1 RNA 1
RNA 2: B1 RNA 2 with G39A, A41G, C45G
B10: target 1 C2U,A16C (mixed)
RNA 1: B1 RNA 1
RNA 2: B2 RNA 2 with A36C, C37G, A40G, C50U
B11: target 1 insC 3' of 16,insC 3' of 13 (mixed)
RNA 1: B1 RNA 1
RNA 2: B5 RNA 2 with A33U, U34A, A35G, G36A, A37C, A40G, G41C
B12: target 1 insC 3' of 22,insG 3' of 10 (mixed)
RNA 1: B1 RNA 1
RNA 2: B5 RNA 2 with A32C, A40G, G42U, U44G
B13: target 1 insG 3' of 7,insA 3' of 6 (mixed)
RNA 1: B1 RNA 1
RNA 2: B1 RNA 2 with A41U, U43A, A44U, U46G, C48A
B14: target 1 C4A,C6U (mixed)
RNA 1: B1 RNA 1
RNA 2: B2 RNA 2 with C37G, A40G, C46U, C48A
B15: target 1 insA 3' of 7,insG 3' of 7 (mixed)
RNA 1: B1 RNA 1
RNA 2: B1 RNA 2 with A41U, U43A, A44U, U46A, C47G

What follows are binders tested against T1, EsCas13d, nuclease-dead (assay: crRNA (strand 1, pre-loaded); Mg2+; 40 mM Tris-HCl pH 7.5, 150 mM NaCl, 6 mM MgCl2, 1 mM DTT, 0.1% Tween-20, 0.2 mg/ml BSA; 25 C; 10 min per concentration, then washed). Settings: tags: His6-TwinStrep-SUMO cleaved; N-terminal SNAP kept (SNAP-Surface 488); label: 3' end held by stalled T7 RNA polymerase.
B1 showed a Kd of 40 ± 5 nM. B2 was tested, and the Kd was 57 ± 15 nM. With B3 the Kd was 13 ± 1.1 nM. B4 showed a Kd of 6.5 ± 0.5 nM. Binder B5 has a Kd of 9.4 ± 0.6 nM. With B6 the Kd was 7.29 ± 0.23 nM. For B7, the Kd was 9.41 ± 0.34 nM. With B8 the Kd was 12.1 ± 1.1 nM. B9 gave a Kd of 8.7 ± 0.7 nM. B10 gave a Kd of 56 ± 4 nM. In the case of B11, the Kd is reported as 83 ± 27 nM. B12 gave a Kd of 34.4 ± 2.2 nM. B13 was tested, and the Kd was 9 ± 0.6 nM. Work on B14 yielded a Kd of 4.16 ± 0.27 nM. B15 showed a Kd of 13 ± 0.9 nM.
